B1: Connector enhancer of kinase suppressor of ras 2, residues 9 to 71; numbered along this chain, Q8WXI2 (parent)
chain: SKWSPSQVVDWMKGLDDCLQQYIKNFEREKISGDQLLRITHQELEDLGVSRIGHQELILEAVD

Variants of: B1
Experiment: abundance fitness (aPCA) (normalised: wild type 0, dead -1); higher = more abundant; growth selection in yeast, the domain comes from the species named
Conditions: Homo sapiens

Abundance fitness, by site and new letter:
L19: V -0.112, H -0.568, I -0.102, A -0.652, E -0.74, D -0.608, P -0.602, R -0.763, Y -0.816, T -0.508, M -0.2, G -0.68, F -0.548, N -0.593, Q -0.604, S -0.642, C -0.244, W -0.936
Q21: Y -0.459, F -0.539, V -0.072, N -0.4, M -0.102, E -0.076, S -0.118, H -0.257, K -0.204, I -0.088, C -0.022, L -0.275, W -0.933, R -0.144, G -0.032, D -0.095, P 0.038
L15: D -0.702, A -0.652, R -0.535, N -0.512, G -0.675, W -0.266, V -0.42, C -0.552, I -0.446, T -0.427, H -0.781, Y -0.636, K -0.48, P -0.712, E -0.371, S -0.539, Q -0.164
P5: A -0.055, V -0.047, Q -0.315, S -0.007, W -0.095, M -0.377, E -0.336, I -0.233, F -0.161, N 0.005, Y 0, K -0.514, G -0.37, D -0.275, C 0.026, T 0.043
I23: C -0.014, G -0.344, D -0.698, E -0.412, A 0.006, F -0.765
V8: Y -1.01, F -0.861, T -0.523, D -0.783, M -0.771, C -0.716, H -0.878, L -0.775, S -0.749, N -0.973, P -0.773, Q -0.947, R -0.872, G -0.851, K -0.88, W -1.05, I -0.524
G14: S -0.005, E -0.225, H -0.468, I -0.922, Q -0.196, V -0.895, K -0.264, L -0.579, Y -1.04, C -0.34, W -0.986, F -1.06, R -0.3, A -0.41, M -0.421
D17: N -0.075, V -0.359, Q -0.091, W -0.497, M -0.268, E -0.018, F -0.181, C -0.06, Y -0.203, A -0.137, P -0.051, R -0.184, I -0.4, G -0.104, L -0.446, K -0.186
C18: S -0.024, R -0.314, N -0.132, Q -0.124, Y -0.877, M -0.442, L -0.885, T -0.221, K -0.301, F -0.823, W -0.991, D 0.006, G -0.182, I -0.439, V -0.118, P -0.239
V9: F -0.764, N -0.562, S -0.207, G -0.128, E -0.374, I -0.035, M -0.159, W -0.863, T -0.11, H -0.774, D -0.66, K -0.334, Q -0.217, P -0.888, A -0.064, R -0.268, Y -0.757, C -0.054
W11: I -1, D -0.65, L -0.896, Q -0.681, H -0.738, R -0.716, G -0.675, C -0.834, K -0.564, P -0.854, A -0.95, S -0.782, M -0.943, Y -0.425, V -0.749, N -0.674, F -0.333, E -0.59
D16: Q -0.293, L -0.702, K -0.632, Y -0.667, G -0.466, W -0.527, N -0.311, C -0.72, P -0.047, V -0.675, I -0.615, A -0.408, S -0.402, E -0.266, H -0.358, F -0.512, M -0.669, R -0.631
Y22: T -0.653, V -0.806, D -0.571, K -0.578, R -0.728, I -0.834, A -0.863, P -0.753, L -0.899, H -0.542, W -0.632, Q -0.636, G -0.702, S -0.742, E -0.753, N -0.747
Q7: M -0.12, I -0.748, K -0.227, D -0.07, T -0.488, H -0.301, P -0.666, C -0.574, E -0.006, N -0.331, L -0.743, W -0.803, A -0.211, S -0.45, G -0.457, V -0.631, F -0.713, Y -0.777
K13: R -0.003, A -0.196, M -0.103, E -0.352, V -0.391, C -0.356, N -0.212, S -0.179, Y -0.242, T -0.237, L -0.23, P -0.895, H -0.13, W -0.339, I -0.422, F -0.375
M12: T -0.849, K -0.827, V -0.266, S -0.8, H -0.766, L -0.188, F -0.096, Y -0.386, G -0.757, D -0.706, R -1.01, I -0.165, P -1, N -1, A -0.658, Q -1.06
S4: V -0.496, M -0.273, Y -0.491, T -0.053, C -0.183, I -0.567, Q -0.676, N 0.001, A -0.835, H -0.385, G -0.128, D -0.027, K -0.141, W -0.958, P -0.393, F -0.656
W3: E -0.725, T -1.05, F -0.563, S -0.504, G -0.597, L -0.236, N -0.545, K -0.409, P -0.764, R -0.498, I -0.053, H -0.772, Y -0.6
S6: T 0.015, Q -0.003, A 0.036, I -0.17, D 0.026, R -0.043, H -0.04, N 0.016, C -0.195, M -0.043, W -0.291, F -0.287, V -0.076, P -0.328, E -0.033, G -0.052, Y -0.166
Q20: H 0.049, L -0.121, R -0.214, D -0.259, C -0.325, A -0.177, N -0.117, S -0.148, G -0.152, W -0.133, K -0.148, Y -0.204, F -0.179, I -0.247, E -0.31, M -0.17, P -0.805
D10: V -0.327, M -0.169, T -0.18, G -0.122, S -0.127, P -0.929, F -0.34, K -0.161, N -0.087, L -0.256, I -0.258, E 0.096, R -0.176

Source: the Human Domainome abundance scans (Beltran et al. 2025)
